Measurements reported in the Human Domainome abundance scans (Beltran et al. 2025).
± gives the uncertainty stated by the source.

B1: CD2-associated protein, residues 271 to 331; numbered along this chain, Q9Y5K6 (parent)
chain: KEYCRTLFAYEGTNEDELTFKEGEIIHLISKETGEAGWWRGELNGKEGVFPDNFAVQINEL

Variants of: B1
Experiment: abundance fitness (aPCA) (normalised: wild type 0, dead -1); higher = more abundant; growth selection in yeast, the domain comes from the species named
Settings: Homo sapiens

Variant	abundance fitness
KEYCRTLFAYEGTNEDELTFKEGEIIHLISKETGEAGWWRGELNGKEGVFPDNFAVQINNL [E60N]	-0.227 ± 0.21
KEYCRTLFAYEGTNEDELTFKEGEIIHLISKETGEAGWWRGELNGKEGVFPDNFAVQINPL [E60P]	-0.015 ± 0.081
KEYCRTLFAYEGTNEDELTFKEGEIIHLISKETGEAGWWRGELNGKEGVFPDNFAVQINCL [E60C]	-0.127 ± 0.12
KEYCRTLFAYEGTNEDELTFKEGEIIHLISKETGEAGWWRGELNGKEGVFPDNFAVQINFL [E60F]	-0.213 ± 0.11
KEYCRTLFAYEGTNEDELTFKEGEIIHLISKETGEAGWWRGELNGKEGVFPDNFAVQINIL [E60I]	-0.475 ± 0.18
KEYCRTLFAYEGTNEDELTFKEGEIIHLISKETGEAGWWRGELNGKEGVFPDNFAVQINLL [E60L]	-0.296 ± 0.086
KEYCRTLFAYEGTNEDELTFKEGEIIHLISKETGEAGWWRGELNGKEGVFPDNFAVQINDL [E60D]	0.172 ± 0.24
KEYCRTLFAYEGTNEDELTFKEGEIIHLISKETGEAGWWRGELNGKEGVFPDNFAVQINML [E60M]	-0.42 ± 0.15
KEYCRTLFAYEGTNEDELTFKEGEIIHLISKETGEAGWWRGELNGKEGVFPDNFAVQINRL [E60R]	-0.178 ± 0.13
KEYCRTLFAYEGTNEDELTFKEGEIIHLISKETGEAGWWRGELNGKEGVFPDNFAVQINAL [E60A]	-0.05 ± 0.088
KEYCRTLFAYEGTNEDELTFKEGEIIHLISKETGEAGWWRGELNGKEGVFPDNFAVQINHL [E60H]	0.13 ± 0.31
KEYCRTLFAYEGTNEDELTFKEGEIIHLISKETGEAGWWRGELNGKEGVFPDNFAVQINTL [E60T]	-0.11 ± 0.18
KEYCRTLFAYEGTNEDELTFKEGEIIHLISKETGEAGWWRGELNGKEGVFPDNFAVQINGL [E60G]	0.013 ± 0.14
KEYCRTLFAYEGTNEDELTFKEGEIIHLISKETGEAGWWRGELNGKEGVFPDNFAVQINVL [E60V]	-0.291 ± 0.12
KEYCRTLFAYEGTNEDELTFKEGEIIHLISKETGEAGWWRGELNGKEGVFPDNFAVQINSL [E60S]	-0.124 ± 0.091
KEYCRTLFAYEGTNEDELTFKEGEIIHLISKETGEAGWWRGELNGKEGVFPDNFAVQINWL [E60W]	-0.258 ± 0.14
KEYCRTLFAYEGTNEDELTFKEGEIIHLISKETGEAGWWRGELNGKEGVFPDNFAVQINKL [E60K]	0.03 ± 0.085
KEYCRTLFAYEGTNEDELTFKEGEIIHLISKETGEAGWWRGELNGKEGVFPDNFAVQINQL [E60Q]	-0.115 ± 0.14
KEYCRTLFAYEGTNEDELTFKEGEIIHLISKETGEAGWWRGELNGKEGVFPDNFAVQITEL [N59T]	-0.147 ± 0.1
KEYCRTLFAYEGTNEDELTFKEGEIIHLISKETGEAGWWRGELNGKEGVFPDNFAVQIIEL [N59I]	-0.702 ± 0.45
KEYCRTLFAYEGTNEDELTFKEGEIIHLISKETGEAGWWRGELNGKEGVFPDNFAVQIEEL [N59E]	-0.05 ± 0.12
KEYCRTLFAYEGTNEDELTFKEGEIIHLISKETGEAGWWRGELNGKEGVFPDNFAVQIHEL [N59H]	-0.1 ± 0.12

Variant	abundance fitness
KEYCRTLFAYEGTNEDELTFKEGEIIHLISKETGEAGWWRGELNGKEGVFPDNFAVQISEL [N59S]	0.009 ± 0.08
KEYCRTLFAYEGTNEDELTFKEGEIIHLISKETGEAGWWRGELNGKEGVFPDNFAVQIVEL [N59V]	-0.349 ± 0.13
KEYCRTLFAYEGTNEDELTFKEGEIIHLISKETGEAGWWRGELNGKEGVFPDNFAVQIWEL [N59W]	-0.367 ± 0.13
KEYCRTLFAYEGTNEDELTFKEGEIIHLISKETGEAGWWRGELNGKEGVFPDNFAVQIMEL [N59M]	-0.426 ± 0.12
KEYCRTLFAYEGTNEDELTFKEGEIIHLISKETGEAGWWRGELNGKEGVFPDNFAVQIQEL [N59Q]	-0.056 ± 0.17
KEYCRTLFAYEGTNEDELTFKEGEIIHLISKETGEAGWWRGELNGKEGVFPDNFAVQILEL [N59L]	-0.501 ± 0.095
KEYCRTLFAYEGTNEDELTFKEGEIIHLISKETGEAGWWRGELNGKEGVFPDNFAVQIPEL [N59P]	-0.032 ± 0.13
KEYCRTLFAYEGTNEDELTFKEGEIIHLISKETGEAGWWRGELNGKEGVFPDNFAVQIKEL [N59K]	-0.274 ± 0.13
KEYCRTLFAYEGTNEDELTFKEGEIIHLISKETGEAGWWRGELNGKEGVFPDNFAVQIDEL [N59D]	-0.145 ± 0.13
KEYCRTLFAYEGTNEDELTFKEGEIIHLISKETGEAGWWRGELNGKEGVFPDNFAVQIGEL [N59G]	-0.037 ± 0.087
KEYCRTLFAYEGTNEDELTFKEGEIIHLISKETGEAGWWRGELNGKEGVFPDNFAVQIYEL [N59Y]	-0.332 ± 0.26
KEYCRTLFAYEGTNEDELTFKEGEIIHLISKETGEAGWWRGELNGKEGVFPDNFANQINEL [V56N]	-0.339 ± 0.11
KEYCRTLFAYEGTNEDELTFKEGEIIHLISKETGEAGWWRGELNGKEGVFPDNFAWQINEL [V56W]	-0.434 ± 0.14
KEYCRTLFAYEGTNEDELTFKEGEIIHLISKETGEAGWWRGELNGKEGVFPDNFAMQINEL [V56M]	-0.073 ± 0.1
KEYCRTLFAYEGTNEDELTFKEGEIIHLISKETGEAGWWRGELNGKEGVFPDNFASQINEL [V56S]	-0.243 ± 0.086
KEYCRTLFAYEGTNEDELTFKEGEIIHLISKETGEAGWWRGELNGKEGVFPDNFAKQINEL [V56K]	-0.05 ± 0.085
KEYCRTLFAYEGTNEDELTFKEGEIIHLISKETGEAGWWRGELNGKEGVFPDNFAQQINEL [V56Q]	-0.226 ± 0.18
KEYCRTLFAYEGTNEDELTFKEGEIIHLISKETGEAGWWRGELNGKEGVFPDNFATQINEL [V56T]	0.033 ± 0.11
KEYCRTLFAYEGTNEDELTFKEGEIIHLISKETGEAGWWRGELNGKEGVFPDNFAHQINEL [V56H]	-0.317 ± 0.18
KEYCRTLFAYEGTNEDELTFKEGEIIHLISKETGEAGWWRGELNGKEGVFPDNFARQINEL [V56R]	-0.161 ± 0.054
KEYCRTLFAYEGTNEDELTFKEGEIIHLISKETGEAGWWRGELNGKEGVFPDNFAYQINEL [V56Y]	-0.409 ± 0.16
KEYCRTLFAYEGTNEDELTFKEGEIIHLISKETGEAGWWRGELNGKEGVFPDNFAPQINEL [V56P]	-0.567 ± 0.25

Variant	abundance fitness
KEYCRTLFAYEGTNEDELTFKEGEIIHLISKETGEAGWWRGELNGKEGVFPDNFAIQINEL [V56I]	-0.327 ± 0.17
KEYCRTLFAYEGTNEDELTFKEGEIIHLISKETGEAGWWRGELNGKEGVFPDNFALQINEL [V56L]	-0.264 ± 0.088
KEYCRTLFAYEGTNEDELTFKEGEIIHLISKETGEAGWWRGELNGKEGVFPDNFAVQCNEL [I58C]	-0.112 ± 0.096
KEYCRTLFAYEGTNEDELTFKEGEIIHLISKETGEAGWWRGELNGKEGVFPDNFAVQFNEL [I58F]	-0.126 ± 0.11
KEYCRTLFAYEGTNEDELTFKEGEIIHLISKETGEAGWWRGELNGKEGVFPDNFAVQANEL [I58A]	-0.151 ± 0.071
KEYCRTLFAYEGTNEDELTFKEGEIIHLISKETGEAGWWRGELNGKEGVFPDNFAVQRNEL [I58R]	-0.417 ± 0.051
KEYCRTLFAYEGTNEDELTFKEGEIIHLISKETGEAGWWRGELNGKEGVFPDNFAVQYNEL [I58Y]	-0.249 ± 0.09
KEYCRTLFAYEGTNEDELTFKEGEIIHLISKETGEAGWWRGELNGKEGVFPDNFAVQVNEL [I58V]	0.005 ± 0.055
KEYCRTLFAYEGTNEDELTFKEGEIIHLISKETGEAGWWRGELNGKEGVFPDNFAVQHNEL [I58H]	-0.234 ± 0.09
KEYCRTLFAYEGTNEDELTFKEGEIIHLISKETGEAGWWRGELNGKEGVFPDNFAVQTNEL [I58T]	-0.136 ± 0.074
KEYCRTLFAYEGTNEDELTFKEGEIIHLISKETGEAGWWRGELNGKEGVFPDNFAVQQNEL [I58Q]	-0.247 ± 0.088
KEYCRTLFAYEGTNEDELTFKEGEIIHLISKETGEAGWWRGELNGKEGVFPDNFAVQDNEL [I58D]	0 ± 0.14
KEYCRTLFAYEGTNEDELTFKEGEIIHLISKETGEAGWWRGELNGKEGVFPDNFAVQPNEL [I58P]	-0.431 ± 0.11
KEYCRTLFAYEGTNEDELTFKEGEIIHLISKETGEAGWWRGELNGKEGVFPDNFAVQNNEL [I58N]	-0.378 ± 0.13
KEYCRTLFAYEGTNEDELTFKEGEIIHLISKETGEAGWWRGELNGKEGVFPDNFAVQSNEL [I58S]	-0.233 ± 0.071
KEYCRTLFAYEGTNEDELTFKEGEIIHLISKETGEAGWWRGELNGKEGVFPDNFAVQLNEL [I58L]	-0.026 ± 0.052
KEYCRTLFAYEGTNEDELTFKEGEIIHLISKETGEAGWWRGELNGKEGVFPDNFAVQWNEL [I58W]	-0.213 ± 0.065
KEYCRTLFAYEGTNEDELTFKEGEIIHLISKETGEAGWWRGELNGKEGVFPDNFAVQINEA [L61A]	0.033 ± 0.13
KEYCRTLFAYEGTNEDELTFKEGEIIHLISKETGEAGWWRGELNGKEGVFPDNFAVQINEC [L61C]	0.275 ± 0.14
KEYCRTLFAYEGTNEDELTFKEGEIIHLISKETGEAGWWRGELNGKEGVFPDNFAVQINEE [L61E]	0.026 ± 0.23
KEYCRTLFAYEGTNEDELTFKEGEIIHLISKETGEAGWWRGELNGKEGVFPDNFAVQINEP [L61P]	0.215 ± 0.086
KEYCRTLFAYEGTNEDELTFKEGEIIHLISKETGEAGWWRGELNGKEGVFPDNFAVQINEQ [L61Q]	0.113 ± 0.16

Variant	abundance fitness
KEYCRTLFAYEGTNEDELTFKEGEIIHLISKETGEAGWWRGELNGKEGVFPDNFAVQINEK [L61K]	0.033 ± 0.12
KEYCRTLFAYEGTNEDELTFKEGEIIHLISKETGEAGWWRGELNGKEGVFPDNFAVQINER [L61R]	-0.049 ± 0.064
KEYCRTLFAYEGTNEDELTFKEGEIIHLISKETGEAGWWRGELNGKEGVFPDNFAVQINEM [L61M]	-0.003 ± 0.079
KEYCRTLFAYEGTNEDELTFKEGEIIHLISKETGEAGWWRGELNGKEGVFPDNFAVQINEI [L61I]	-0.29 ± 0.23
KEYCRTLFAYEGTNEDELTFKEGEIIHLISKETGEAGWWRGELNGKEGVFPDNFAVQINEH [L61H]	0.009 ± 0.32
KEYCRTLFAYEGTNEDELTFKEGEIIHLISKETGEAGWWRGELNGKEGVFPDNFAVDINEL [Q57D]	-0.097 ± 0.14
KEYCRTLFAYEGTNEDELTFKEGEIIHLISKETGEAGWWRGELNGKEGVFPDNFAVTINEL [Q57T]	-0.024 ± 0.066
KEYCRTLFAYEGTNEDELTFKEGEIIHLISKETGEAGWWRGELNGKEGVFPDNFAVSINEL [Q57S]	-0.182 ± 0.072
KEYCRTLFAYEGTNEDELTFKEGEIIHLISKETGEAGWWRGELNGKEGVFPDNFAVRINEL [Q57R]	-0.155 ± 0.05
KEYCRTLFAYEGTNEDELTFKEGEIIHLISKETGEAGWWRGELNGKEGVFPDNFAVIINEL [Q57I]	-0.006 ± 0.093
KEYCRTLFAYEGTNEDELTFKEGEIIHLISKETGEAGWWRGELNGKEGVFPDNFAVAINEL [Q57A]	-0.023 ± 0.061
KEYCRTLFAYEGTNEDELTFKEGEIIHLISKETGEAGWWRGELNGKEGVFPDNFAVHINEL [Q57H]	-0.051 ± 0.15
KEYCRTLFAYEGTNEDELTFKEGEIIHLISKETGEAGWWRGELNGKEGVFPDNFAVVINEL [Q57V]	-0.058 ± 0.048
KEYCRTLFAYEGTNEDELTFKEGEIIHLISKETGEAGWWRGELNGKEGVFPDNFAVFINEL [Q57F]	-0.295 ± 0.18
KEYCRTLFAYEGTNEDELTFKEGEIIHLISKETGEAGWWRGELNGKEGVFPDNFAVKINEL [Q57K]	-0.188 ± 0.074
KEYCRTLFAYEGTNEDELTFKEGEIIHLISKETGEAGWWRGELNGKEGVFPDNFAVCINEL [Q57C]	-0.139 ± 0.1
KEYCRTLFAYEGTNEDELTFKEGEIIHLISKETGEAGWWRGELNGKEGVFPDNFAVNINEL [Q57N]	-0.077 ± 0.19
KEYCRTLFAYEGTNEDELTFKEGEIIHLISKETGEAGWWRGELNGKEGVFPDNFAVEINEL [Q57E]	-0.016 ± 0.06
KEYCRTLFAYEGTNEDELTFKEGEIIHLISKETGEAGWWRGELNGKEGVFPDNFAVWINEL [Q57W]	-0.532 ± 0.095
KEYCRTLFAYEGTNEDELTFKEGEIIHLISKETGEAGWWRGELNGKEGVFPDNFAVYINEL [Q57Y]	-0.463 ± 0.11
KEYCRTLFAYEGTNEDELTFKEGEIIHLISKETGEAGWWRGELNGKEGVFPDNFAVLINEL [Q57L]	-0.046 ± 0.041
